Test results as given in patent US8846003.
No end group written: not given here.

Molecular target: collagen
Assay: SPR, Biacore 2000; 1500 RU collagen amine-coupled to CM-3 chip, SILY injected at 100 µM to 1.5 µM; from on-off binding kinetics

B1: peptide … (peptide)
peptide: RRANAALKAGELYKSILYGC-NH2
Question: B1 was tested. Which Kd did it give?
Answer: The Kd was 1.2 µM.
